{"source": "patent US20260029420A1", "about": "“ANTI-CB2 ANTIBODIES AND THEIR USE IN A FLOW CYTOMETRY ASSAY TO MEASURE CELL SURFACE CB2 EXPRESSION” (Hoffmann-La Roche Inc., priority 2022, published 2026)", "format_in_all_cases": "binding", "key": {"CHODukx CRE hCB2 Cl.90": {"biological_target": "T1, CHODukx CRE hCB2 Cl.90 (Homo sapiens, UniProt P34972)", "T1 construct": "expressed in transfected cells", "T1 sequence (P34972 whole entry)": "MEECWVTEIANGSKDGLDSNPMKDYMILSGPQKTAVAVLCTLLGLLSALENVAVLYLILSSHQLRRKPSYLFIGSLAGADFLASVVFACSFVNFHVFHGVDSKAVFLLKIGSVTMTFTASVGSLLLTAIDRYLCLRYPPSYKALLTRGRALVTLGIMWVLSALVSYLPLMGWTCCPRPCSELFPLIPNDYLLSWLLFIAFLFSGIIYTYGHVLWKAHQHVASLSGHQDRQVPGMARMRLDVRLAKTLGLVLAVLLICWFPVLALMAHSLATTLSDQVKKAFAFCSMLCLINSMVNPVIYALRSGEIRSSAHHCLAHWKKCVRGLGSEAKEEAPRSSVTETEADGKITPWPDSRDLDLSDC", "assay": "Western blot of cell lysates", "design": "key: “−” no signal; “+”-“+++++” signal intensity; “+”-“+++++” signal intensity; “+”-“+++++” signal intensity; “+”-“+++++” signal intensity; “+”-“+++++” signal intensity", "conditions": "CHODukx CRE hCB2 Cl.90 lysate", "protocol": "The positive clones (Table 1) were further characterized by immunofluorescence (IF; Table 2), Western Blot (Table 3, 1) and Immune precipitation (Table 4, 2) on full length hCB2, hCB1, mCB2 stable-transfected CHO-cell lines in addition to the 2 pANITA constructs.\nFor Western blot analysis, cells were collected using enzyme free dissociation buffer (Cell dissociation buffer enzyme-free Hanks'-based, Gibco), and washed two times with PBS. To prepare cell lysate, 10^6 cells were lysed with 0.1 ml of lysis buffer (1% NP40, 10% glycerol, 2 mM EDTA, 137 mM NaCl, 20 mM TrisHCl, pH8, Protease Inhibitors) for 10 min on ice. The lysate was cleared by centrifugation at 20′000 g for 5 min. For SDS-PAGE cell lysate was resolved on precast 4-12% gradient gels (NuPAGE® Novex 4-12% Bis-Tris Gel, Invitrogen) with MES running buffer according to the manufacturer's directions. The separation of proteins was visualized by Colloidal Blue staining. The proteins were electrophoretically transferred to nitrocellulose membrane using a dry-blotting system (iBlot, Invitrogen). After blocking the membrane for 16 h in blocking buffer (5% Milk in PBS) at 4° C., specific proteins were detected with appropriate dilutions of mAbs in blocking buffer for 1 h at approximately 20° C. […]"}, "CHO-DUKX parental cells": {"system": "CHO-DUKX parental cells", "assay": "Flow cytometry on CHO-DUKX cells", "from_the_text": "(§1) FIG. 4: Flow cytometric analysis of hCB2 antibody 1/622 in CHO-DUKX parental and CHO-DUKX_HOMSA_CNR2_Clone_90_CRE-Luc cells transfected with hCB2. For detection an F(ab)2 goat-anti Mouse IgG3 PE antibody was used. The anti-human CB2 antibody 1/622 detects the CB2 in the CHO cells transfected with hCB2 with a signal to background ratio of 10, the CHO-DUKX parental cells are negative."}, "[1]": {"biological_target": "T2, CHO-DUKX_HOMSA_CNR2_Clone_90_CRE-Luc cells transfected with hCB2 (Homo sapiens, UniProt P34972)", "T2 construct": "expressed in transfected cells", "T2 sequence (P34972 whole entry)": "as above", "assay": "Flow cytometry on CHO-DUKX cells", "conditions": "transfected vs parental untransfected CHO cells", "from_the_text": "as §1"}, "[2]": {"biological_target": "T3, cell surface CB2 on B-cells (Homo sapiens, UniProt P34972)", "T3 construct": "measured in whole blood samples from nine different healthy human volunteers of working-age; endogenous in cells; host or cells: B-cells (and basophils and other leukocytes) in human whole blood", "T3 sequence (P34972 whole entry)": "as above", "assay": "Flow cytometry detection of baseline cell surface CB2 on B-cells in untreated whole blood", "conditions": "increasing antibody concentrations", "protocol": "FIG. 5A and FIG. 5B: Comparison of different anti-hCB2 antibodies in detecting cell surface CB2 expression on B-cells. FIG. 5A: Flow cytometric analysis with increasing concentrations of hCB2 antibody 1/622 (black dots) and hCB2 clone 352110 (R&D Systems; dark rectangle). A fluorescence minus one (FMO) serves as control as well as the secondary PE labeled antibody alone (0 μg antibody/sample). FIG. 5B: Flow cytometric analysis with increasing concentrations of mouse IgG3 isotype control clone B10 (SBA; open dots), hCB2 antibody 1/622 (black dots), mouse IgG2b isotype control clone 26114 (R&D Systems; open rectangles) and hCB2 clone 352110 (R&D Systems; dark rectangles). The secondary PE labeled antibody alone serves as 0 μg antibody/sample control.\nDetection of baseline expression of cell surface CB2 on B-cells was assessed for clone 1/622 and compared to a commercially available hCB2 antibody (R&D Systems; clone 352110) (5). The flow cytometry experiment was performed as described in Example 3 yet using untreated whole blood samples and using increasing concentrations of the respective anti-human CB2 antibody. […]\nFor determination of cell surface expression of CB2 on B-cells, median fluorescent intensity (MFI) was analyzed by gating around the CD45^+ CD3^− CD14^− CD19^+ B-cells (see gating strategy in FIG. 6A to FIG. 6E) and acquiring a minimum of 2000 events in this gate (FIG. 6F). […]"}}}
{"molecule": "hCB2-1/622: murine IgG3 monoclonal anti-human CB2 antibody, VH SEQ ID NO: 1, VL SEQ ID NO: 2, HC SEQ ID NO: 3, LC SEQ ID NO: 4 (antibody) heavy: EVQLQQSGPELVKPGASVKISCKTSGYTFTEYTMHWVRQSHGKSLEWIGGIDRYNGDTYYNQKFKDKATLTVDRSSSTAYMELRSLTSEDSAVYFCARNGAMDYWGQGISVTVSSATTTAPSVYPLVPGCSDTSGSSVTLGCLVKGYFPEPVTVKWNYGALSSGVRTVSSVLQSGFYSLSSLVTVPSSTWPSQTVICNVAHPASKTELIKRIEPRIPKPSTPPGSSCPPGNILGGPSVFIFPPKPKDALMISLTPKVTCVVVDVSEDDPDVHVSWFVDNKEVHTAWTQPREAQYNSTFRVVSALPIQHQDWMRGKEFKCKVNNKALPAPIERTISKPKGRAQTPQVYTIPPPREQMSKKKVSLTCLVTNFFSEAISVEWERNGELEQDYKNTPPILDSDGTYFLYSKLTVDTDSWLQGEIFTCSVVHEALHNHHTQKNLSRSPGK light: DVVMTQTPLSLPVSLGDQASISCRSSQSLVHSNGNTYLHWFLQKPGQSPKLLIYKVSIRFSGVPDRFSGSGSGTDFTLKISRVEAEDLGVYFCSQSTHVPPLTFGAGTKLELKRADAAPTVSIFPPSSEQLTSGGASVVCFLNNFYPKDINVKWKIDGSERQNGVLNSWTDQDSKDSTYSMSSTLTLTKDEYERHNSYTCEATHKTSTSPIVKSFNRNEC", "values": [{"measurement": "Western Blot signal intensity", "setting": "CHODukx CRE hCB2 Cl.90", "result": "−"}, {"measurement": "flow cytometric detection of CB2", "setting": "CHO-DUKX parental cells", "result": "negative"}, {"measurement": "signal to noise ratio for detection of human CB2", "setting": "[1]", "result": "good signal to noise ratio"}, {"measurement": "Median fluorescence intensity on B-cells", "setting": "[2]", "result": "dose-dependent increase"}]}
